The values below come from paper PMC13129248.

This data set deals with DENV C (dengue virus capsid protein) (Dengue virus 2, strain New Guinea, UniProt O92835 1-100). Kind of data set: Trp fluorescence quenching and lifetime.

As to AAAGACCAACACCAAGAGGCACAGTAATGGACATT (ssDNA) [C], the binding result is “binds”.
